Results from patent publication US20070218504A1, “HUMAN LEPTIN-DERIVED POLYPEPTIDES AND USES THEREOF” (UNIVERSITY OF PITTSBURGH, priority 2006, published 2007).
“Also recorded” adds a separate entry of the source.

Columns and labels:
[1] = system: tyrosine phosphorylation of STAT3; experiment: Leptin-induced tyrosine phosphorylation of STAT3 in HEK293 cells over-expressing OB-Rb in the presence of CRP (Western blot); assay type: cell-based, human; details: murine/mouse leptin; HEK293 OB-Rb
Experimental: To determine if the interaction between CRP and leptin dampens the cellular actions of leptin, the ability of leptin to stimulate tyrosine phosphorylation of STAT3 and PI3-kinase activity was assessed in the presence of CRP in vitro. HEK293 cells over-expressing OB-Rb were serum starved for 2 hours before addition of leptin and CRP (CHEMICON or EMD Biosciences). Leptin, in the presence or absence of CRP, was pre-incubated in μ-MEM (with additional 1 mM Ca^2+) for 30 minutes at 37° C. before being applied to the cells. After a 30-minute incubation with leptin, the cells were harvested in lysis buffer (18). The resultant protein extract was subjected to a Western blot analysis using an anti-phospho-STAT3 specific antibody (Cell Signaling, Beverly, Mass.). For studies involving primary hypothalamic neurons, the hypothalamus from rats was surgically isolated immediately after euthanasia, and placed in the DMEM for incubation with leptin in the presence or absence of CRP.

[2] = target: T1, mouse leptin (Mus musculus, UniProt P41160); experiment: Immuno-precipitation assay of direct binding of rat CRP and mouse leptin; details: leptin/CRP mixture and rat serum; Western blot with anti-CRP
T1 construct: purchased AF Parlow of NHPP, Torrance, CA
T1 sequence (P41160 22-167): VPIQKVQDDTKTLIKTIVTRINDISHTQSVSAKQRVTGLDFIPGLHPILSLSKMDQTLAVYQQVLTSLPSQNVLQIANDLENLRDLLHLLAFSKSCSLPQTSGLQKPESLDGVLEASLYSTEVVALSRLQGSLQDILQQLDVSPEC
Experimental: To explore a physical interaction between CRP and leptin, the direct binding of these proteins was determined by an immuno-precipitation assay. Rat CRP was purified from fresh rat serum to >95% purity employing a previously established affinity-purification protocol (20). […] The purified human- and rat-CRP proteins were pre-mixed with recombinant human and mouse leptin, respectively, before addition of antibodies specific for human- and mouse-leptin. The concentrations of CRP and leptin in the precipitation reaction were all within the physiological ranges that have been observed in humans or rats (11 & 15). In parallel experiments, recombinant leptin also was pre-mixed with human- or rat-serum to allow for direct interaction prior to immuno-precipitation. The protein precipitates obtained were subjected to Western blot assays using specific anti-CRP antibodies.

[3] = system: insulin-stimulated PI3-kinase activity; experiment: Insulin-stimulated PI3-kinase activity in 3T3-L1 adipocytes; assay type: cell-based

B1: rat CRP: rat C-reactive protein purified from fresh rat serum to >95% purity (protein)
chain: HEDMSKQAFVFPGVSATAYVSLEAESKKPLEAFTVCLYAHADVSRSFSIFSYATKTSFNEILLFWTRGQGFSIAVGGPEILFSASEIPEVPTHICATWESATGIVELWLDGKPRVRKSLQKGYIVGTNASIILGQEQDSYGGGFDANQSLVGDIGDVNMWDFVLSPEQINAVYVGRVFSPNVLNWRALKYETHGDVFIKPQLWPLTDCCES
effect of CRP on murine leptin-induced tyrosine phosphorylation of STAT3 [1]: attenuating effects; also recorded: attenuate | co-precipitation of CRP with anti mouse-leptin antibody [2]: could bring down rat CRP | effect on insulin-stimulated PI3-kinase activity [3]: did not block
